Assay results from patent US20260242735A1 (UNIVERSIT T BASEL, published 2026).

Columns and labels:
human CD33 Q24R = human CD33 Q24R (human, UniProt P20138 18-364); assay: flow cytometry, HEK293-T, IgG;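 note: CD33 point mutants transiently expressed, antibody binding measured by fluorescence in duplicate, background subtracted and scaled to binding on wild-type CD33 as 100%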
human CD33 P19D = human CD33 P19D (human, UniProt P20138 18-364); assay: flow cytometry, HEK293-T, IgG;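 note: CD33 point mutants transiently expressed, antibody binding measured by fluorescence in duplicate, background subtracted and scaled to binding on wild-type CD33 as 100%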
human CD33 F21H = human CD33 F21H (human, UniProt P20138 18-364); assay: flow cytometry, HEK293-T, IgG;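 note: CD33 point mutants transiently expressed, antibody binding measured by fluorescence in duplicate, background subtracted and scaled to binding on wild-type CD33 as 100%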
Sequence of human CD33 F21H (P20138 18-364 F21H limits assumed): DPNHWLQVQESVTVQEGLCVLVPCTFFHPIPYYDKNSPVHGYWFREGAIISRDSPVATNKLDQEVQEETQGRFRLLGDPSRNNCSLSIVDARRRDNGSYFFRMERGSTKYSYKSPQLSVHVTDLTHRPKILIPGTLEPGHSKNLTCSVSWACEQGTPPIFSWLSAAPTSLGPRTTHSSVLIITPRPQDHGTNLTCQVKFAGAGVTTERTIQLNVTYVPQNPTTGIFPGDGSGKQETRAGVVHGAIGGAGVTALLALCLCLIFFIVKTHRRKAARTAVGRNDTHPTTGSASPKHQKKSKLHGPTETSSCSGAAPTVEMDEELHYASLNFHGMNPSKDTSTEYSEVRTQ

human CD33 W22R = human CD33 W22R (human, UniProt P20138 18-364); assay: flow cytometry, HEK293-T, IgG;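 note: CD33 point mutants transiently expressed, antibody binding measured by fluorescence in duplicate, background subtracted and scaled to binding on wild-type CD33 as 100%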
human CD33 F21I = human CD33 F21I (human, UniProt P20138 18-364); assay: flow cytometry, HEK293-T, IgG
Sequence of human CD33 F21I (P20138 18-364 F21I limits assumed): as the sequence (P20138 18-364 F21H limits assumed) above, with H4I counted along it

human CD33 P19L = human CD33 P19L (human, UniProt P20138 18-364); assay: flow cytometry, HEK293-T, IgG
Sequence of human CD33 P19L (P20138 18-364 P19L limits assumed): as the sequence (P20138 18-364 F21H limits assumed) above, with P2L, H4F counted along it

human CD33 W22Q = human CD33 W22Q (human, UniProt P20138 18-364); assay: flow cytometry, HEK293-T, IgG
human CD33 W22G = human CD33 W22G (human, UniProt P20138 18-364); assay: flow cytometry, HEK293-T, IgG
human CD33 N20D = human CD33 N20D (human, UniProt P20138 18-364); assay: flow cytometry, HEK293-T, IgG
human CD33 M120I = human CD33 M120I (human, UniProt P20138 18-364); assay: flow cytometry, transfected cells, IgG;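 note: CD33 point mutants transiently expressed in HEK293-T cells, antibody binding read by fluorescence, background subtracted and normalized to wild-type CD33 as 100%, duplicates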
Method: (§1) An alanine scan on human CD33 was performed to the determine the residues on CD33 that are involved in binding to the antibodies investigated. […] Briefly, a mutation library of CD33 was created by high-throughput, site-directed mutagenesis. Each residue was individually mutated to alanine, with alanine codons mutated to serine. The mutant library was arrayed in 384-well microplates and transiently transfected into HEK293-T. Following transfection, cells were incubated with the indicated antibodies (IgG or Fab) at concentrations pre-determined using an independent immunofluorescence titration curve on wild type CD33. […] Binding of each antibody to each mutant clone was determined in duplicates. For each point, background fluorescence was subtracted from the raw data, which were then normalized to antibody reactivity with wild type CD33.
(§2) Antibodies were screened for binding to the human CD33 variants in IgG format. […] For each mutation, background fluorescence was subtracted from the raw data, which were then normalized to antibody reactivity with wild-type CD33.

human CD33 S131H = human CD33 S131H (human, UniProt P20138 18-364); assay: flow cytometry, transfected cells, IgG;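 note: CD33 point mutants transiently expressed in HEK293-T cells, antibody binding read by fluorescence, background subtracted and normalized to wild-type CD33 as 100%, duplicates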
Sequence of human CD33 S131H (P20138 18-364 S131H limits assumed): as the sequence (P20138 18-364 F21H limits assumed) above, with H4F, S114H counted along it
Method: as §1, §2

human CD33 S131K = human CD33 S131K (human, UniProt P20138 18-364); assay: flow cytometry, transfected cells, IgG;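 note: CD33 point mutants transiently expressed in HEK293-T cells, antibody binding read by fluorescence, background subtracted and normalized to wild-type CD33 as 100%, duplicates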
Sequence of human CD33 S131K (P20138 18-364 S131K limits assumed): as the sequence (P20138 18-364 F21H limits assumed) above, with H4F, S114K counted along it
Method: as §1, §2

human CD33 K52Y = human CD33 K52Y (human, UniProt P20138 18-364); assay: flow cytometry, transfected cells, IgG;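 note: CD33 point mutants transiently expressed in HEK293-T cells, antibody binding read by fluorescence, background subtracted and normalized to wild-type CD33 as 100%, duplicates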
Sequence of human CD33 K52Y (P20138 18-364 K52Y limits assumed): as the sequence (P20138 18-364 F21H limits assumed) above, with H4F, K35Y counted along it
Method: as §1, §2

human CD33 R122E = human CD33 R122E (human, UniProt P20138 18-364); assay: flow cytometry, transfected cells, IgG
Sequence of human CD33 R122E (P20138 18-364 R122E limits assumed): as the sequence (P20138 18-364 F21H limits assumed) above, with H4F, R105E counted along it
Method: as §1, §2

human CD33 S131D = human CD33 S131D (human, UniProt P20138 18-364); assay: flow cytometry, transfected cells, IgG
Method: as §1, §2

human CD33 R122G = human CD33 R122G (human, UniProt P20138 18-364); assay: flow cytometry, transfected cells, IgG
Method: as §1, §2

human CD33 P132K = human CD33 P132K (human, UniProt P20138 18-364); assay: flow cytometry, transfected cells, IgG
Sequence of human CD33 P132K (P20138 18-364 P132K limits assumed): as the sequence (P20138 18-364 F21H limits assumed) above, with H4F, P115K counted along it
Method: as §1, §2

human CD33 Y127E = human CD33 Y127E (human, UniProt P20138 18-364); assay: flow cytometry, transfected cells, IgG
Method: as §1, §2

human CD33 K52I = human CD33 K52I (human, UniProt P20138 18-364); assay: flow cytometry, transfected cells, IgG
Method: as §1, §2

human CD33 S131T = human CD33 S131T (human, UniProt P20138 18-364); assay: flow cytometry, transfected cells, IgG
Sequence of human CD33 S131T (P20138 18-364 S131T limits assumed): as the sequence (P20138 18-364 F21H limits assumed) above, with H4F, S114T counted along it
Method: as §1, §2

human CD33 S131Q = human CD33 S131Q (human, UniProt P20138 18-364); assay: flow cytometry, transfected cells, IgG
Sequence of human CD33 S131Q (P20138 18-364 S131Q limits assumed): as the sequence (P20138 18-364 F21H limits assumed) above, with H4F, S114Q counted along it
Method: as §1, §2

human CD33 Y127H = human CD33 Y127H (human, UniProt P20138 18-364); assay: flow cytometry, transfected cells, IgG
Method: as §1, §2

human CD33 P132T = human CD33 P132T (human, UniProt P20138 18-364); assay: flow cytometry, transfected cells, IgG
Method: as §1, §2

human CD33 S131F = human CD33 S131F (human, UniProt P20138 18-364); assay: flow cytometry, transfected cells, IgG
Method: as §1, §2

human CD33 S131G = human CD33 S131G (human, UniProt P20138 18-364); assay: flow cytometry, transfected cells, IgG
Sequence of human CD33 S131G (P20138 18-364 S131G limits assumed): as the sequence (P20138 18-364 F21H limits assumed) above, with H4F, S114G counted along it
Method: as §1, §2

human CD33 P132Q = human CD33 P132Q (human, UniProt P20138 18-364); assay: flow cytometry, transfected cells, IgG
Method: as §1, §2

human CD33 L134F = human CD33 L134F (human, UniProt P20138 18-364); assay: flow cytometry, transfected cells, IgG
Sequence of human CD33 L134F (P20138 18-364 L134F limits assumed): as the sequence (P20138 18-364 F21H limits assumed) above, with H4F, L117F counted along it
Method: as §1, §2

human CD33 P132H = human CD33 P132H (human, UniProt P20138 18-364); assay: flow cytometry, transfected cells, IgG
Method: as §1, §2

human CD33 K52S = human CD33 K52S (human, UniProt P20138 18-364); assay: flow cytometry, transfected cells, IgG
Method: as §1, §2

human CD33 K52L = human CD33 K52L (human, UniProt P20138 18-364); assay: flow cytometry, transfected cells, IgG
Sequence of human CD33 K52L (P20138 18-364 K52L limits assumed): as the sequence (P20138 18-364 F21H limits assumed) above, with H4F, K35L counted along it
Method: as §1, §2

human CD33 P132D = human CD33 P132D (human, UniProt P20138 18-364); assay: flow cytometry, transfected cells, IgG
Method: as §1, §2

human CD33 K52H = human CD33 K52H (human, UniProt P20138 18-364); assay: flow cytometry, transfected cells, IgG
Sequence of human CD33 K52H (P20138 18-364 K52H limits assumed): as the sequence (P20138 18-364 F21H limits assumed) above, with H4F, K35H counted along it
Method: as §1, §2

human CD33 K52G = human CD33 K52G (human, UniProt P20138 18-364); assay: flow cytometry, transfected cells, IgG
Method: as §1, §2

human CD33 R122I = human CD33 R122I (human, UniProt P20138 18-364); assay: flow cytometry, transfected cells, IgG
Method: as §1, §2

human CD33 S131M = human CD33 S131M (human, UniProt P20138 18-364); assay: flow cytometry, transfected cells, IgG
Method: as §1, §2

human CD33 L134Q = human CD33 L134Q (human, UniProt P20138 18-364); assay: flow cytometry, transfected cells, IgG
Method: as §1, §2

human CD33 D51N = human CD33 D51N (human, UniProt P20138 18-364); assay: flow cytometry, transfected cells, IgG
Method: as §1, §2

human CD33 P132Y = human CD33 P132Y (human, UniProt P20138 18-364); assay: flow cytometry, transfected cells, IgG
Method: as §1, §2

Row | Mean % WT Binding (human CD33 Q24R) | Mean % WT Binding (human CD33 P19D) | Mean % WT Binding (human CD33 F21H) | Mean % WT Binding (human CD33 W22R) | Mean % WT Binding (human CD33 F21I) | Mean % WT Binding (human CD33 P19L) | Mean % WT Binding (human CD33 W22Q) | Mean % WT Binding (human CD33 W22G) | Mean % WT Binding (human CD33 N20D) | Mean % WT Binding (human CD33 M120I) | Mean % WT Binding (human CD33 S131H) | Mean % WT Binding (human CD33 S131K) | Mean % WT Binding (human CD33 K52Y) | Mean % WT Binding (human CD33 R122E) | Mean % WT Binding (human CD33 S131D) | Mean % WT Binding (human CD33 R122G) | Mean % WT Binding (human CD33 P132K) | Mean % WT Binding (human CD33 Y127E) | Mean % WT Binding (human CD33 K52I) | Mean % WT Binding (human CD33 S131T) | Binder | also measured
1 | 102 % WT binding | 96.4 % WT binding | 108 % WT binding | 104 % WT binding | 95.7 % WT binding | 100 % WT binding | 109 % WT binding | 101 % WT binding | 97.1 % WT binding |  |  |  |  |  |  |  |  |  |  |  | Refmab #5 (antibody, human IgG1, V domains shown, tested in IgG format) VH: QVQLVQSGAEVKKPGASVKVSCKASGYTFTNYDINWVRQAPGQGLEWIGWIYPGDGSTKYNEKFKAKATLTADTSTSTAYMELRSLRSDDTAVYYCASGYEDAMDYWGQGTTVTVSS VL: DIQMTQSPSSLSASVGDRVTINCKASQDINSYLSWFQQKPGKAPKTLIYRANRLVDGVPSRFSGSGSGQDYTLTISSLQPEDFATYYCLQYDEFPLTFGGGTKVEIK | 
2 |  |  |  |  |  |  |  |  |  | 93% | 96.8% | 96.4% | 2% | 95.8% | 102% | 94.9% | 97.1% | 93.9% | 1.9% | 89% | Refmab #5 (antibody, human IgG1, V domains shown) VH: QVQLVQSGAEVKKPGASVKVSCKASGYTFTNYDINWVRQAPGQGLEWIGWIYPGDGSTKYNEKFKAKATLTADTSTSTAYMELRSLRSDDTAVYYCASGYEDAMDYWGQGTTVTVSS VL: DIQMTQSPSSLSASVGDRVTINCKASQDINSYLSWFQQKPGKAPKTLIYRANRLVDGVPSRFSGSGSGQDYTLTISSLQPEDFATYYCLQYDEFPLTFGGGTKVEIK | Mean % WT Binding (human CD33 S131Q): 80.6%; Mean % WT Binding (human CD33 Y127H): 97.2%; Mean % WT Binding (human CD33 P132T): 93.1%; Mean % WT Binding (human CD33 S131F): 82.3%; Mean % WT Binding (human CD33 S131G): 97.1%; Mean % WT Binding (human CD33 P132Q): 88.4%; Mean % WT Binding (human CD33 L134F): 102%; Mean % WT Binding (human CD33 P132H): 88.2%; Mean % WT Binding (human CD33 K52S): 3.8%; Mean % WT Binding (human CD33 K52L): 2.2%; Mean % WT Binding (human CD33 P132D): 90.5%; Mean % WT Binding (human CD33 K52H): 59.7%; Mean % WT Binding (human CD33 K52G): 2.6%; Mean % WT Binding (human CD33 R122I): 86.1%; Mean % WT Binding (human CD33 S131M): 83.8%; Mean % WT Binding (human CD33 L134Q): 62.2%; Mean % WT Binding (human CD33 D51N): 89.4%; Mean % WT Binding (human CD33 P132Y): 84.3%
3 | 86.2 % WT binding | 105 % WT binding | 111 % WT binding | 1.3 % WT binding | 89.3 % WT binding | 103 % WT binding | 7.6 % WT binding | 8.1 % WT binding | 103 % WT binding |  |  |  |  |  |  |  |  |  |  |  | Refmab #6 (antibody, human IgG1, V domains shown, tested in IgG format) VH: QVQLQQPGAEVVKPGASVKMSCKASGYTFTSYYIHWIKQTPGQGLEWVGVIYPGNDDISYNQKFQGKATLTADKSSTTAYMQLSSLTSEDSAVYYCAREVRLRYFDVWGQGTTVTVSS VL: EIVLTQSPGSLAVSPGERVTMSCKSSQSVFFSSSQKNYLAWYQQIPGQSPRLLIYWASTRESGVPDRFTGSGSGTDFTLTISSVQPEDLAIYYCHQYLSSRTFGQGTKLEIK | 
4 |  |  |  |  |  |  |  |  |  | 102% | 68.5% | 2.5% | 26.3% | 96% | 88.9% | 112% | 2.2% | 102% | 71.6% | 99.5% | Refmab #6 (antibody, human IgG1, V domains shown) VH: QVQLQQPGAEVVKPGASVKMSCKASGYTFTSYYIHWIKQTPGQGLEWVGVIYPGNDDISYNQKFQGKATLTADKSSTTAYMQLSSLTSEDSAVYYCAREVRLRYFDVWGQGTTVTVSS VL: EIVLTQSPGSLAVSPGERVTMSCKSSQSVFFSSSQKNYLAWYQQIPGQSPRLLIYWASTRESGVPDRFTGSGSGTDFTLTISSVQPEDLAIYYCHQYLSSRTFGQGTKLEIK | Mean % WT Binding (human CD33 S131Q): 18.9%; Mean % WT Binding (human CD33 Y127H): 112%; Mean % WT Binding (human CD33 P132T): 11.7%; Mean % WT Binding (human CD33 S131F): 2.4%; Mean % WT Binding (human CD33 S131G): 101%; Mean % WT Binding (human CD33 P132Q): 5.4%; Mean % WT Binding (human CD33 L134F): 90.7%; Mean % WT Binding (human CD33 P132H): 86.6%; Mean % WT Binding (human CD33 K52S): 107%; Mean % WT Binding (human CD33 K52L): 99.4%; Mean % WT Binding (human CD33 P132D): 87.6%; Mean % WT Binding (human CD33 K52H): 86.1%; Mean % WT Binding (human CD33 K52G): 105%; Mean % WT Binding (human CD33 R122I): 107%; Mean % WT Binding (human CD33 S131M): 4.3%; Mean % WT Binding (human CD33 L134Q): 47.1%; Mean % WT Binding (human CD33 D51N): 92.6%; Mean % WT Binding (human CD33 P132Y): 1.1%
